These are literature values, as cited in publication PMC6916721.

Series [1] deals with His95 (UniProt position 121, YHCTPHPFMRG). Particulars: reduced (Cu+) amicyanin, free (not in complex with MADH).
The target in series [2] is Amicyanin, reduced (Cu+) form (UniProt P22364). Particulars: pH.
Chain of Amicyanin, reduced (Cu+) form (P22364 whole entry): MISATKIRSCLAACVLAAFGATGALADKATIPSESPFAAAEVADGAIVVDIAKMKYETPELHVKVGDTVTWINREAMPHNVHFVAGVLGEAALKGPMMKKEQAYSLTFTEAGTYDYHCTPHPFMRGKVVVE

As to Amicyanin (Paracoccus denitrificans), in series [1], the pKa was 7.7.
As for Methylamine dehydrogenase (MADH), the pKa, His95 of amicyanin (copper ligand, reduced Cu+ state) in series [2] is 7.7 pH units.

In general, pKa refers to the negative logarithm of the acid dissociation constant.
